Reference: PMC4713135

Molecular target: EGFP-Rab5 (wild type) (UniProt P20339)
Assay: FRET or BRET

Chain of UniProt P20339 (P20339 whole entry): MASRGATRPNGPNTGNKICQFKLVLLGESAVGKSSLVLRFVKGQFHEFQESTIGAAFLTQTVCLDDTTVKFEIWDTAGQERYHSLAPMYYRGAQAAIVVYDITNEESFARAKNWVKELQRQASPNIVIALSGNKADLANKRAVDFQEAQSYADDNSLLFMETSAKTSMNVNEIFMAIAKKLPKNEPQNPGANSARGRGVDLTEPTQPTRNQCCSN

FRET efficiency: 10%
B1: mRFP-DRG2 (human DRG2) (natural protein)
chain: MGILEKISEIEKEIARTQKNKATEYHLGLLKAKLAKYRAQLLEPSKSASSKGEGFDVMKSGDARVALIGFPSVGKSTFLSLMTSTASEAASYEFTTLTCIPGVIEYKGANIQLLDLPGIIEGAAQGKGRGRQVIAVARTADVIIMMLDATKGEVQRSLLEKELESVGIRLNKHKPNIYFKPKKGGGISFNSTVTLTQCSEKLVQLILHEYKIFNAEVLFREDCSPDEFIDVIVGNRVYMPCLYVYNKIDQISMEEVDRLARKPNSVVISCGMKLNLDYLLEMLWEYLALTCIYTKKRGQRPDFTDAIILRKGASVEHVCHRIHRSLASQFKYALVWGTSTKYSPQRVGLTHTMEHEDVIQIVKK
